The values that follow come from US20020197702A1.

Assay in all cases: cell-based or functional assay
Assay [1] has as its target affinity purified membrane derived caspase-3 from 697 cell heavy membranes (human) (UniProt P42574).
Assay [2] has as its target r-caspase-3 (His)6 (human) (UniProt P42574).
Assay [3] addresses T1, 697 Bcl-2 HM (caspase-1 treated) caspase (human) (UniProt P42574).
T1 sequence 1: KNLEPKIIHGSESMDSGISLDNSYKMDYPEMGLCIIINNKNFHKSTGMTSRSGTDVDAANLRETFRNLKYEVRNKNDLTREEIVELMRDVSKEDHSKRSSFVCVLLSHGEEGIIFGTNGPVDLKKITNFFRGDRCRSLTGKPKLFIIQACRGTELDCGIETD
T1 sequence 2: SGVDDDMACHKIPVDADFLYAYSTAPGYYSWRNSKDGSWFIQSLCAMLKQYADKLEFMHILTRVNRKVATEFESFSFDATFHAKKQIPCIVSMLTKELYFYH

The target in assay [4] is T2, 697-neo HM (caspase-1 treated) caspase (human) (UniProt P42574).
T2 sequence 1: T1 sequence 1
T2 sequence 2: T1 sequence 2

Assay [5] deals with 697-neo HM (spontaneous activity) caspase (human) (UniProt P42574).

With “Protein p35 (early p35 protein from Autographa californica nuclear polyhedrosis virus) (from UniProt P08160 1-299)”, the IC50, inhibition of DEVD-AMC cleavage activity in assay [1] is 0.074 nM; in assay [2], 0.041 nM.

Regarding YVAD-ald (peptide), the IC50, inhibition of DEVD-amc cleavage in assay [3], in assay [4] and in assay [5] was over 10000 nM each time.
